Like-named read-outs stand apart in the source and are kept apart here.
B1: hEP: human apoE dual-domain peptide: helix 4 of N-terminal domain plus major lipid-binding region; expressed in bacteria (protein)
peptide: EELRVRLASHLRKLRKRLLRDADDLQKRLAVYEEQAQQIRLQAEAFQARLKSWFEPLVEDM

Tests used:
[1] = DMPC binding assay (turbidity OD490nm)
Procedure: FIGS. 3A-3C. Both hEP and mEP mediate plasma cholesterol clearance through hepatic lipoprotein receptors. (A) DMPC binding assay was conducted as described in the examples section. The turbidity of DMPC vesicle solution was monitored by OD490 nm. The curves were representative of two independent experiments. (B) HEK293T cells were loaded with DiI-LDL (5 μg/ml) along with apoE peptide-DMPC particles which competed with DiI-LDL for LDLR binding and LDLR-mediated endocytosis (for 30 min) n=3 for each group. (C) Each peptide (100 μg in 100 μl PBS) was retro-orbitally injected into 6-month-old apoE−/− mice (two mice each group). PBS (100 μl) was injected into two other mice as control. Before (set as 0 min time point) and 5 min, 30 min, 1 h, 2 h, and 4 h after the peptide or PBS injection, 30 μl blood samples were drawn for plasma cholesterol measurement using total Cholesterol Reagent Kit (Raichem, San Diego, Calif.).
1,2-dimyristoyl-sn-glycero-3-phosphatidylcholine (DMPC) (Avanti Polar Lipids Inc., Alabaster, Ala.) was dissolved in chloroform: methanol (3:1, v/v). It was dried thoroughly under a stream of N2. The dried lipid sample was dispersed in pre-warmed buffer (10 mM Tris-HCl, pH7.2; 150 mM NaCl; 0.5 mM EDTA) to final lipid concentration of 10 mg/ml, vortexed for 1 min, and sonicated 10 times at lowest power for 10 seconds at 24° C. The peptide solution, lipid solution and buffer were all maintained at 23.9° C. One milliliter buffer and 250 μg (25 μl lipid solution) were added in a quartz cuvette, and let equilibrate for 10 min, resulting in a turbid DMPC vesicle solution. Peptide solution (250 μg in 100 μl) was then added to turbid solution in the cuvette, the solution was mixed immediately, and the change of turbidity was monitored by OD at 490 nm as a function of time. If the peptide binds to DMPC vesicles, the large DMPC vesicles will be transformed into smaller DMPC-peptide particles, reducing the turbidity of the solution.

[2] = system: JFH-1 HCVcc-Luc
Procedure: FIGS. 1A-1C. […] (A) Schematic illustration of apoE protein domains and the amino acid sequences of hEP and mEP peptides. The amino acid sequences shown are hEP-1 (SEQ ID NO: 6) and mEP (SEQ ID NO: 20). […] Huh7.5.1 cells were infected with JFH-1 HCVcc-Luc (MOI˜0.5) in the presence of hEP or mEP for 2 hours. After removal of virus and peptides, cells were further incubated for 48 hours prior to luciferase assay. Data are presented as % inhibition relative to control infections in which cells were treated with DMSO (0%). Results are expressed as mean±standard deviation (s.d.) (n=3). (C). Huh7.5.1 cells were treated with hEP or DMSO at indicated doses for 48 hours. The effect of hEP on cell viability was measured by a CellTiter Glo assay kit.
FIGS. 7A-7E. Mapping the anti-viral activity of hEP. In (A) and (B), HCVcc-luc was first mixed with indicated peptides (20 μg/ml, 2.7 μM) and then incubated with Huh7.5.1 cells for two hours at 37° C. to initiate infection. After additional 48 hours incubation, luciferase activity was measured. Results are presented as fold of inhibition relative to infections containing DMSO (n=5, mean±sd). (C) 20 μg of hEP-2 or hEP-2/ΔCys were resuspended in PBS and kept at room temperature for 30 minutes. Peptides were then mixed with 2×SDS-sample buffer without DTT and boiled for 5 minutes. Alternatively, samples were simply left unboiled or mixed with sample buffer containing DTT (2 mM). Peptide samples were then subjected to electrophoresis on a 16% tricine non-reducing gel (Invitrogen). […] (D) and (E) Mass spectrometric analysis of hEP-2 or hEP-2/ΔCys.
Detailed procedures involving the production and use of HCVpp and HCVcc have been published elsewhere (Liu et al., J Virol 2009; 83:2011-2014; Yang et al., Hepatology 2008; 48:1396-1403; Yang et al., J Biol Chem 2008; 283:8643-8653). Production procedure of HCVcc expressing firefly luciferase that was inserted between NS5A and NS5B (JFH-1 strain) was described elsewhere (Liu et al., Virology 2010; 407:160-170). Unless otherwise indicated, viruses were typically added to cells for two hours before removal. Cells were incubated for additional 48 hours followed by luciferase assay. When purification was needed, HCVcc were subjected to ultracentrifugation (SW41, 28,000×g) for 4 hours through a 20% sucrose cushion. Deidentified human sera, collected from five patients containing high-titer HCV (HCVser), were obtained.

| Molecule | DMPC binding ([1]; reduction (percentage) of turbidity (OD490nm) of DMPC solution, plateau 10 minutes after addition of peptide) | IC50 ([2]; HCVcc infection of Huh7.5.1 cells) [nM] | Binding to DMPC (in words) ([1]; DMPC vesicles, turbidity) | IC50 ([2]; read-out: 50% inhibitory concentration (IC50) of HCVcc infection, JFH-1 HCVcc-Luc MOI~0.5, peptide present 2 hours, luciferase after 48 hours) [nM] | Suppression of HCVcc infection at various MOIs ([2]; various MOIs) |
| --- | --- | --- | --- | --- | --- |
| EELRVRLASHLRKLRKRLLRDADDLQKRLAVYEEQAQQIRLQAEAFQARLKSWFEPLVEDM [hEP-1] | + (+, reduction 25-50%) | 670 | – | – | – |
| B1 | – | – | efficiently bound | 670 | robustly suppressed |
